Experimental data taken from the supplement of paper PMC10567573.

B1: FBF1 (parent)
chain: YQRPQDSEDMWGDEDFTFGAYQPT
B2: PRPH (parent)
chain: DEIEFLKKLHEEELRDLQVSVESQ

Variants of: B1
Test: protein stability index of a GFP-peptide fusion (GPS, HEK-293T) (PSI 1-6); higher = more stable
Conditions: c terminus: a fixed tail appended
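Also: lentivirally expressed fusions sorted by FACS into six bins by GFP to DsRed ratio, PSI derived from sequencing read proportions per bin multiplied by bin number.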

Protein stability index, by site and new letter:
D9: T 2.59, V 1.66, W 2.01, Y 1.87
M10: A 4.18, C 3.23, D 4.06, E 4.53, F 1.86, G 3.96, H 3.47, I 2.39, K 3.72, L 2.25, N 4.06, P 3.34, Q 3.71, R 3.66, S 3.5, T 3.73, V 2.75, W 2.81, Y 3.11
W11: A 4.45, C 4.55, D 4.54, E 4.5, F 3.83, G 4.67, H 4.54, I 4.19, K 4.27, L 4.13, M 4.13, N 4.44, P 4.87, Q 4.78, R 4.43, S 4.79, T 4.33, V 4.25, Y 3.74
G12: A 2.92, C 2.28, D 4.15, E 3.71, F 2.41, H 2.85, I 2.43, K 2.37, L 2.28, M 3.12, N 3.17, P 3.79, Q 3.13, R 2.96, S 3.13, T 2.55, V 2.48, W 2.71, Y 2.55
D13: A 2.1, C 1.74, E 3.13, F 2.18, G 2.28, H 1.76, I 2.13, K 2.52, L 2.45, M 2.32, N 2.07, P 1.73, Q 1.79, R 2.89, S 1.85, T 1.77, V 1.8, W 1.53, Y 1.72
E14: A 1.67, C 2.11, D 2.58, F 1.78, G 1.88, H 2.84, I 1.82, K 1.46, L 1.66, M 1.26, N 1.8, P 2.03, Q 1.94, R 2.05, S 2.43, T 2.15, V 2.36, W 2.21, Y 2.27
D15: A 2.31, C 1.77, E 2.75, F 1.52, G 2.13, H 2.05, I 2.11, K 1.73, L 2.04, M 1.9, N 2.13, P 2.45, Q 2.41, R 2.15, S 2.16, T 2.43, V 1.86, W 1.78, Y 2.23
F16: A 2.9, C 2.85, D 3.48, E 3.73, G 3.23, H 3, I 3.14, K 2.87, L 2.71, M 3.17, N 3.61, P 2.71, Q 3.4, R 2.73, S 3.29, T 2.8, V 2.88, W 2.73, Y 2.83
T17: A 3.46, C 2.65, D 3.37, E 3.04, F 2.53, G 3.01, H 2.86, I 2.36, K 2.68, L 2.31, M 2.59, N 3.04, P 2.93, Q 3.44, R 2.68, S 2.65, V 3.07, W 1.84, Y 2.1
F18: A 3.43, C 3.19, D 3.9, E 3.62, G 3.6, H 3.04, I 3.06, K 3.6, L 2.65, M 3.25, N 3.93, P 3.62, Q 3.35, R 3.61, S 3.98, T 3.77, V 3.8, W 2.53, Y 3.02
G19: A 2.59, C 2.53, D 3.49, E 3.76, F 2.56, H 2.67, I 2.64, K 2.51, L 2.33, M 2.88, N 3.1, P 2.77, Q 2.78, R 2.47, S 3.18, T 2.6, V 2.8, W 1.84, Y 2.35
A20: C 2.18, D 3.02, E 3.29, F 2.38, G 2.91, H 2.95, I 2.11, K 2.94, L 2.76, M 2.62, N 2.9, P 2.92, Q 2.97, R 2.18, S 2.69, T 3.05, V 2.72, W 2.04, Y 2.79
Y21: A 3.51, C 3.17, D 3.73, E 3.75, F 2.98, G 3.46, H 3.07, I 3.16, K 3.44, L 3.35, M 2.78, N 3.51, P 3.56, Q 3.39, R 3.06, S 3.51, T 3.1, V 2.92, W 2.04
Q22: A 2.77, C 2.6, D 3.06, E 3.19, F 2.38, G 2.86, H 2.43, I 2.45, K 1.95, L 2.77, M 2.22, N 2.57, P 3.19, R 2.65, S 3.03, T 2.28, V 2.37, W 1.94, Y 3.22
P23: A 2.47, C 2.96, D 3.06, E 3.36, F 2.74, G 3.19, H 3.32, I 2.64, K 2.68, L 2.87, M 2.26, N 3.1, Q 3.06, R 2.67, S 2.61, T 2.87, V 2.4, W 2.19, Y 2.85
T24: A 2.79, C 2.83, D 2.88, E 2.58, F 2.29, G 3.25, H 2.27, I 2.24, K 3.02, L 2.23, M 2.52, N 3.02, P 3.17, Q 2.68, R 2.38, S 2.67, V 2.63, W 1.99, Y 2.44

Variants of: B2
Test: as above
Conditions: c terminus: a fixed tail appended

Protein stability index: each site, then its substitutions
D1: A 4.22, C 3.41, E 4.78, F 4.07, G 4.53, H 4.99, I 3.46, K 3.95, L 4.63, M 4.18, N 4.78, P 4.53, Q 3.77, R 4.01, S 4.64, T 4.71, V 4.31, W 3.97, Y 4.32
E2: A 2.22, C 2.04, D 5.01, F 2.13, G 3.56, H 4.08, I 2.1, K 3.94, M 2.05, N 4.67, P 4.13, Q 3.73, R 4.39, S 3.65, T 2.98, V 2, W 1.69, Y 1.91
I3: A 5.36, C 5.09, D 5.68, E 5.43, F 4.88, G 5.05, H 5.24, K 5.18
